In this experiment the target is T1, FLAG-tagged Parkin (Wild type) (human, UniProt O60260 1-465).
T1 construct: whole, on cells; Plasmid described in Imai et al. 2000; also called FLAG-Parkin; the full-length Parkin; not shown: FLAG tag
As to the kind of experiment: co-immunoprecipitation from 293T cells (FLAG-IP, anti-Myc Western blot). The source says: We have previously reported that the expression of Parkin is increased due to the stress induced by misfolded proteins, so as to have an effect of suppressing cell death resulting from the stress induced by misfolded proteins (Imai, Y. et al. (2000) J Biol Chem 275, 35661-35664). Against endoplasmic reticulum stress, a series of unfolded protein responses (UPR) including endoplasmic reticulum (ER)-associated degradation (ERAD), which regulate gene expression, are induced (Travers, K. J. et al., (2000) Cell 101, 249-258). ERAD degrades misfolded membrane proteins or secretory proteins with the degradation system within the cytoplasm (Plemper, R. K. et al., (1999) Trends Biochem Sci 24, 266-270). ERAD substrate was transported back through the membrane of the endoplasmic reticulum to the cytoplasm, in which it is ubiquitinated and degraded by the action of UBC6, UBC7, proteasome complex and the like (Biederer, T. et al., (1997) Science 278, 1806-1809; Bordallo, J. et al., (1998) Mol Biol Cell 9, 209-222; Gilon, T. et al., (2000) Mol Cell Biol 20, 7214-7219; Wilhovsky, S. et al., (2000) Mol Biol Cell 11, 1697-1708). […] Immunoprecipitates (FLAG-IP) immunoprecipitated with anti-FLAG monoclonal antibodies and soluble total cell extract (Total lysate) were analyzed by Western blotting (WB) using anti-FLAG or anti-Myc antibodies.
Background: Immunoblotting shows a protein as a band on a membrane.

T1 sequence (O60260 whole entry): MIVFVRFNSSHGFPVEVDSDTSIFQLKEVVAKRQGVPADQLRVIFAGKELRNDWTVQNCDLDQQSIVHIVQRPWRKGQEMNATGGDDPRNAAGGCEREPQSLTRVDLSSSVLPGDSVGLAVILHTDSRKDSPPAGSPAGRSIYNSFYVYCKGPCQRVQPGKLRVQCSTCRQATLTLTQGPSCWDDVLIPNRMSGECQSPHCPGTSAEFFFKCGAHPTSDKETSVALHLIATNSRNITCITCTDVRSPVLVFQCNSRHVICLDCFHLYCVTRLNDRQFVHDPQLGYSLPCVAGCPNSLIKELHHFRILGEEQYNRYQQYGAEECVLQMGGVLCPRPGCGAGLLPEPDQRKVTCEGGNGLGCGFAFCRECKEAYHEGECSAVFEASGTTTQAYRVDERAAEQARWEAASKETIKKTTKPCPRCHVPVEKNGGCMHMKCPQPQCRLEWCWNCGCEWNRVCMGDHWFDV

B1: Myc-E2-25K (enzyme, human, UniProt P61086 2-200, looked up)
chain: ANIAVQRIKREFKEVLKSEETSKNQIKVDLVDENFTELRGEIAGPPDTPYEGGRYQLEIKIPETYPFNPPKVRFITKIWHPNISSVTGAICLDILKDQWAAAMTLRTVLLSLQALLAAAEPDDPQDAVVANQYKQNPEMFKQTARLWAHVYAGAPVSSPEYTKKIENLCAMGFDRNAVIVALSSKSWDVETATELLLSN
notes: whole, on cells; not shown: Myc tag
In the case of B1, the binding result is listed as “no binding”.

B2: Myc-UBCH6 (enzyme, UniProt P51965 2-193, looked up)
chain: SDDDSRASTSSSSSSSSNQQTEKETNTPKKKESKVSMSKNSKLLSTSAKRIQKELADITLDPPPNCSAGPKGDNIYEWRSTILGPPGSVYEGGVFFLDITFTPEYPFKPPKVTFRTRIYHCNINSQGVICLDILKDNWSPALTISKVLLSICSLLTDCNPADPLVGSIATQYMTNRAEHDRMARQWTKRYAT
notes: as for B1
Consider B2, for which the binding result was “no binding”.

Values taken from patent US20060051835A1 (published 2006).
